Results published in paper PMC5741103.

Tests used:
SLMAP [1] = molecular target: SLMAP (UniProt Q14BN4); experiment: co-IP, MST2 variants and V5-SLMAP
SLMAP [2] = molecular target: SLMAP (UniProt Q14BN4); experiment: co-IP, FLAG-MST2 and V5-SLMAP; conditions: reference: wild type MST2; sites T325,T336,T378

binding against the reference (SLMAP [1]; reference: MST2-6A/325T, sites T325)	binding against the reference (SLMAP [1]; reference: MST2-6A/336T, sites T336)	binding against the reference (SLMAP [1]; reference: MST2-6A/378T, sites T378)	binding against the reference (SLMAP [2])	Substance
lost	lost	lost	–	MST2 (from UniProt Q13188) MST2-7A
–	–	–	lost	MST2 (from UniProt Q13188) MST2-3A
